Consider two substances from PMC3017872.

Assay [1] deals with Fcε receptors expressed on the surface of U937 monocytic cells (human (endogenous in U937)). The assay is described as follows: flow cytometry on cells. For orientation: A flow cytometer gives signals particle by particle.
Assay [2] has as its target recombinant IgE receptor FcεRI alpha (sFcεRIα) (UniProt P12319). In words: SPR. For orientation: SPR reads the build-up and loss of mass on a sensor chip optically.
Sequence of UniProt P12319 (P12319 26-205): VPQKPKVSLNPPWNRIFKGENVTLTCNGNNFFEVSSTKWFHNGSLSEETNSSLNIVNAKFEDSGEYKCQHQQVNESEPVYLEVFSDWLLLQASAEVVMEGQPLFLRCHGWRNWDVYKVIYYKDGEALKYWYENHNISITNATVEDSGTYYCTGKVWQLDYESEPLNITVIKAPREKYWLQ

Take “chimaeric MOv18 IgE antibody against the ovarian cancer antigen FBP”: in assay [1], the percent of cells bound was 60.6%.

Broadly, the koff is the rate constant with which the complex falls apart. Broadly, the kon is the rate constant with which the complex forms. Consider chimaeric antibody NIP IgE, for which, in assay [2], the koff is 2.6e-05 s⁻¹ and the kon was 230000 M⁻¹ s⁻¹.
